Test results: patent US9758785B2, “miR-520 microRNAs sensitize cancers to platinum-based therapy” (BAYLOR COLLEGE OF MEDICINE, priority 2012, dated 2017)
Entries after “also recorded” stand apart in the source; their conditions may differ.

What was measured:
Format in all cases: cell-based, human
[1] = test system: lin28A/B; assay: Stemness gene expression in media that induce spheroid formation; details: OVCAR8 and SKOV3ip1
[2] = test system: phopho-CHK2 (T68); assay: Western blot of phospho-CHK2 in OVCAR8 cells; details: OVCAR8 with cisplatin
Procedure: (§1) Whole cell lysates equivalent to 30 μg of protein were resolved on 4-12% gradient SDS-PAGE. Resolved proteins were transferred onto PVDF membranes using the iBlot system (Invitrogen). Rabbit polyclonal and/or mouse monoclonal antibodies specifically recognizing ATM, phospo-ATM (Ser1981) CHK1 phospho-CHK1 (Ser216), p21, phospo-CHK2 ([…]), BCL2, XIAP, CDC25A were obtained from Cell Signaling Technologies (Danvers, Mass.). A rabbit polyclonal antibody recognizing FANCD2 was also purchased from Abcam (Cambridge, Mass.). Protein expression was visualized using species-specific, horseradish peroxidase-conjugated secondary antibody (Cell Signaling) and ECL Plus chemiluminescent substrate (Amersham, Buckinghamshire, UK).

[3] = test system: CDC25c; assay: Western blot of CDC25c in OVCAR8 cells; details: OVCAR8, particularly when exposed to cisplatin; listed as miR-520g/h
Procedure: as §1

[4] = test system: ATM transcript; assay: qPCR of ATM transcript in OVCAR8 cells; details: OVCAR8, qPCR vs non-silencing control, baseline without cisplatin
Procedure: Total RNA was extracted from cell pellets using the mirVana miRNA extraction kit (Ambion, Austin, Tex.) according to the manufacturer's instructions. Levels of microRNA expression were examined using Mature MicroRNA Taqman assays (Applied Biosystems, Foster City, Calif.) using U6 as a control. For all gene expression assays, cDNA was prepared using qScript cDNA supermix (Quanta Biosciences, Gaithersburg, Md.). TaqMan gene expression assays (Applied Biosystems) were used to measure expression of specific target genes according to the manufacturer's instructions. All reactions were performed in triplicate using OneStepPlus real time PCR system (Applied Biosystems). All qPCR results are reported using the ΔΔCT method (17).

B1: hsa-mir-520h MI0003175 (nucleic acid, listed as Homo sapiens)
chain: UCCCAUGCUGUGACCCUCUAGAGGAAGCACUUUCUGUUUGUUGUCUGAGAAAAAACAAAGUGCUUCCCUUUAGAGUUACUGUUUGGGA
modifications: expressed or natural sequence
notes: synthetic mimic or stably expressed from pLemiR vector; written miR-520g/h interchangeably
- Spheroid-media-induced expression of stemness genes (lin28A/B) [1]: eliminates increased expression
- phospho-CHK2 (T68) level [2]: increased levels
- CDC25c and phospho-CDC25c protein level [3]: much lower; also recorded: decreased levels
- ATM transcript level [4]: paradoxically higher
- ATM transcript level ([4]; listed as miR-520g/h): actually higher
